Data as given in PMC7356358, “Comparative Characterization of Plasmodium falciparum Hsp70-1 Relative to E. coli DnaK Reveals the Functional Specificity of the Parasite Chaperone” (Biomolecules, 2020).
Values joined by “and” are separate entries in the source; they are usually repeats but may differ in a detail not shown here. Equal values may be shown once.

B1: peptide ALLLMYRR (peptide)
peptide: ALLLMYRR
notes: canonical model Hsp70 peptide substrate; source: synthetic peptide
B2: Plasmodium falciparum Hsp70-1 (natural protein)
chain: not shown
notes: Plasmodium falciparum Hsp70-1, cytosolic Hsp70; PlasmoDB PF3D7_0818900; expressed from pQE30/PfHsp70-1; also called PfHsp70-1; PfHsp70
B3: peptide NRLLTG (peptide)
peptide: NRLLTG
notes: as for B1
B4: peptide GFRVVLMYRF (peptide)
peptide: GFRVVLMYRF
notes: as for B1
B5: Plasmodium falciparum Hsp40 (natural protein, UniProt Q8IL88 1-424, looked up)
chain: MFFSSGFPFDSMGGQQARRKREVNNNKFYEVLNLKKNCTTDEVKKAYRKLAIIHHPDKGGDPEKFKEISRAYEVLSDEEKRKLYDEYGEEGLENGEQPADATDLFDFILNAGKGKKKRGEDIVSEVKVTLEQLYNGATKKLAISKDIICTNCEGHGGPKDAKVDCKQCNGRGTKTYMRYHSSVLHQTEVTCNTCRGKGKIFNEKDKCANCKGMCVLKTRKIIEVYIPKGAPNKHKIVFNGEADEKPNVITGNLVVILNEKQHPVFRREGIDLFMNYKISLYESLTGFVAEVTHLDERKILVNCTNSGFIRHGDIREVLDEGMPTYKDPFKKGNLYITFEVEYPMDLIITNENKEVLKILKKQNEVEKKYDLENSELEVVSCSPVDKEYIKVRVTKQQQQQQQEAYDDEDHQPEMEGGRVACAQQ
notes: P. falciparum type I Hsp40, cytosolic co-chaperone of PfHsp70-1; PlasmoDB PF3D7_1437900; codon harmonized gene cloned into pQE30 (BamHI, HindIII); also called PfHsp40
B6: peptide NRNNTG (peptide)
peptide: NRNNTG
notes: NRLLTG with the middle residues substituted by asparagine; source: synthetic peptide

Legend:
[1] = molecular target: B2; assay: SPR; settings: both partners purified
Escherichia coli DnaK [2] = molecular target: T1, Escherichia coli DnaK (Escherichia coli, UniProt P0A6Y8 1-638); assay: SPR; MP-SPR; Hsp70 immobilised, peptide as analyte at 0-2000 nM, 100 µL/min; with 5 mM ADP; settings: both partners purified
T1 construct: E. coli Hsp70 (DnaK); expressed from pQE30/DnaK; also called E. coli Hsp70

[3] = molecular target: the molecule itself; assay: SPR; MP-SPR (BioNavis); Hsp70 immobilised on a CMD3D 500L chip, the same Hsp70 as analyte at 0-2000 nM; no nucleotide; self-association, step not told; global fit
[4] = molecular target: the molecule itself; assay: SPR; MP-SPR (BioNavis); Hsp70 immobilised on a CMD3D 500L chip, the same Hsp70 as analyte at 0-2000 nM; with 5 mM ADP; self-association, step not told; global fit
[5] = molecular target: the molecule itself; assay: SPR; MP-SPR (BioNavis); Hsp70 immobilised on a CMD3D 500L chip, the same Hsp70 as analyte at 0-2000 nM; with 5 mM ATP; self-association, step not told; global fit
Escherichia coli DnaK [6] = molecular target: T1, Escherichia coli DnaK; assay: SPR; MP-SPR; Hsp70 immobilised, peptide as analyte at 0-2000 nM, 100 µL/min; with 5 mM ATP (hydrolysable); settings: both partners purified
Escherichia coli DnaK [7] = molecular target: T1, Escherichia coli DnaK; assay: SPR; settings: both partners purified
[8] = molecular target: B2; assay: SPR; MP-SPR (BioNavis); Hsp70 immobilised (1.0 μg/mL), PfHsp40 as analyte at 0-2000 nM; no nucleotide; global fit; settings: both partners purified
[9] = molecular target: B2; assay: SPR; MP-SPR (BioNavis); Hsp70 immobilised (1.0 μg/mL), PfHsp40 as analyte at 0-2000 nM; with 5 mM ADP; global fit; settings: both partners purified
[10] = molecular target: B2; assay: SPR; MP-SPR (BioNavis); Hsp70 immobilised (1.0 μg/mL), PfHsp40 as analyte at 0-2000 nM; with 5 mM ATP; global fit; settings: both partners purified

B1
binding result [1]: binds
binding result (Escherichia coli DnaK [2]): binds

B2
Kd [3]: 2.39 µM
kon [3]: 8510 M⁻¹ s⁻¹
Kd [4]: 1.71 µM
kon [4]: 100 M⁻¹ s⁻¹
Kd [5]: 0.528 µM
kon [5]: 21400 M⁻¹ s⁻¹

B3
binding result [1]: binds
binding result (Escherichia coli DnaK [2]): binds

GFRNNNMYRF (source: synthetic peptide) [peptide GFRNNNMYRF]
binding result [1]: binds
binding result (Escherichia coli DnaK [6]): binds

B4
binding result [1]: binds
binding result (Escherichia coli DnaK [6]): binds

B5
kon (Escherichia coli DnaK [7]): 122 M⁻¹ s⁻¹ and 116 M⁻¹ s⁻¹ and 112 M⁻¹ s⁻¹
Kd [8]: 18.8 µM
kon [8]: 1330 M⁻¹ s⁻¹
Kd [9]: 9.98 µM
kon [9]: 1530 M⁻¹ s⁻¹
Kd [10]: 0.208 µM
kon [10]: 181 M⁻¹ s⁻¹

ANNNMYRR (source: synthetic peptide) [peptide ANNNMYRR]
binding result [1]: binds
binding result (Escherichia coli DnaK [6]): binds

B6
binding result [1]: binds
binding result (Escherichia coli DnaK [2]): binds
